Eight molecules from US20240247068A1 (INDUSTRY FOUNDATION OF CHONNAM NATIONAL UNIVERSITY, published 2024) can be followed below.

Test [1] has as its target T1, calreticulin (CRT) exposed on the cell membrane of drug-treated CT26 and MC38 cells (UniProt P14211 18-416, limits assumed).
T1 construct: whole, on cells; Target is inferred from cells on which calreticulin exposure was induced by anticancer drugs; cells were fixed with 3% paraformaldehyde; also called calreticulin on the cell surface
T1 sequence (looked up): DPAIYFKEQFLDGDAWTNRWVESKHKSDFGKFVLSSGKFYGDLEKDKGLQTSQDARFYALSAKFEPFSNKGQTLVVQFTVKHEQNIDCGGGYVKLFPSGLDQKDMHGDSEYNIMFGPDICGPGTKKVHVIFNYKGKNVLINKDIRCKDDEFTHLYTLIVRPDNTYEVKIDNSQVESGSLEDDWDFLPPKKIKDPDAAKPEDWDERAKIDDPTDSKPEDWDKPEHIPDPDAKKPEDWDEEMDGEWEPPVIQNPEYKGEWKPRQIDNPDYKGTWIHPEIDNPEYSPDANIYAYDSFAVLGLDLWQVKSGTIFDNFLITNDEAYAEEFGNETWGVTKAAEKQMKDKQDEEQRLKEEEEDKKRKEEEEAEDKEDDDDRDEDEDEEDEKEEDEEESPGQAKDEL
Description: flow cytometry, mitoxantrone- or doxorubicin-treated CT26 and MC38 cells, 5 µg/mL, anti-His tag detection. The text has this: (§1) The present inventors allowed cancer cells to react with CRT-monobody-Rluc8, and then measured the binding degree in the number of cells in order to more accurately confirm the binding force of CRT-monobody-Rluc8, which was purified according to an embodiment of the present invention, to calreticulin. To this end, CT26, MC38, Hela, and MDA-MB-231 cells were first cultured, and then the expression of calreticulin on the cell surface was induced by the same method (gemcitabine, doxorubicin, and mitoxantrone) as in Example 5. […] Finally, in order to identify cells bound to CRT-monobody, fluorescence signals of the cells were identified using a flow cytometer (BD Bioscience).
(§2) As a result, when the CT26 (colon cancer), MC38 (colon cancer), Hela (uterine cancer), and MDA-MB-231 (breast cancer) cells were not treated with an anticancer drug and when the cells were treated with gemcitabine, no exposure of calreticulin on the cell membrane was confirmed through fluorescence signals for each cell, and there was no signal change after CRT-monobody treatment of the present invention, so that it was confirmed that the CRT-monobody was not bound to the cells.
In general terms: Flow cytometry measures light scatter and fluorescence of single cells or particles in a stream.

Test [2] deals with T2, calreticulin (CRT) exposed on the cell membrane of drug-treated Hela and MDA-MB-231 cells (UniProt P27797 18-417, limits assumed).
T2 construct: whole, on cells; Target is inferred from cells on which calreticulin exposure was induced by anticancer drugs; cells were fixed with 3% paraformaldehyde; also called calreticulin on the cell surface
T2 sequence (looked up): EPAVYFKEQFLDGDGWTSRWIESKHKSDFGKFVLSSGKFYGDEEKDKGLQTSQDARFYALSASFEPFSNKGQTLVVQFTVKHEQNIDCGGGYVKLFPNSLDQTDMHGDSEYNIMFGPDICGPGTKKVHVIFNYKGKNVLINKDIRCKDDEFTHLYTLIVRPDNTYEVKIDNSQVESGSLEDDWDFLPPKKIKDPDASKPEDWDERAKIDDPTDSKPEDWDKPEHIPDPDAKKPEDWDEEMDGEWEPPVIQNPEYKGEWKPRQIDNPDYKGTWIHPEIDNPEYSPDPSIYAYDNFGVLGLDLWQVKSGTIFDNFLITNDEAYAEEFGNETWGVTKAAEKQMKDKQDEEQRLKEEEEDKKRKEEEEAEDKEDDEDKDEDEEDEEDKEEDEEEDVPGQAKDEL
The experiment in a line: flow cytometry, mitoxantrone- or doxorubicin-treated Hela and MDA-MB-231 cells, 5 µg/mL, anti-His tag detection.
Description: as §1, §2

Test [3] addresses T1, calreticulin (CRT) exposed on the cell …. The experiment in a line: confocal microscopy, mitoxantrone-treated CT26 cells, 10 µg/mL monobody, anti-His tag detection. On the procedure:
In order to verify the binding force of the purified CRT-monobody to calreticulin, the present inventors observed the degree of binding with a confocal microscope after treating the cancer cells with CRT-monobody. Specifically, CT26 (colon cancer) cells, which are cancer cells, were seeded at 1×10⁵ cells per well in chamber slides (154534PAK, Thermo Fisher Scientific) and cultured overnight in a C02 incubator. Then, each of the cells was treated with mitoxantrone (25 μM), which is an anticancer drug, to induce calreticulin on the surface thereof, treated with gemcitabine (15 μM) as a control group, and cultured for 4 hours, washed with PBS, and reacted with 3% paraformaldehyde for 10 minutes to fix the cells. Then, a block buffer (3% BSA in PBS) was treated for 1 hour to prevent the hard-to-bind antibody, and the CRT-monobody (10 μg/mL) of the present invention was treated in each well and reacted for 1 hour to induce binding to calreticulin. […] In addition, Alexa 555 conjugated WGA-555 (1:2000, 3% BSA in PBS) was treated in order to distinguish cell membranes, DAPI-Glod-antifade was treated, and mounting was performed, and the prepared slides were refrigerated under dark conditions.

Test [4] deals with T2, calreticulin (CRT) exposed on the cell …. Description: confocal microscopy, mitoxantrone- or doxorubicin-treated Hela and MDA-MB-231 cells, 10 µg/mL, anti-His tag detection. The protocol:
In order to verify the binding force of the CRT-monobody-Rluc8 protein to calreticulin, the present inventors observed the degree of binding with a confocal microscope after purifying CRT3-R, CRT4-R, and DGR-R as in Example 3 and treating cancer cells with the CRT-monobody-Rluc8 proteins. Specifically, cancer cells such as CT26 (colon cancer), MC38 (colon cancer), Hela (uterine cancer), and MDA-MB-231 (breast cancer) were seeded at 1×10⁵ cells per well in chamber slides (154534PAK, Thermo Fisher Scientific) and cultured overnight in a CO₂ incubator. Then, each of the cells was treated with doxorubicin (25 μM) and mitoxantrone (25 μM), which are anticancer drugs, to induce calreticulin on the surface thereof, treated with gemcitabine (15 μM) as a control group, and cultured for 4 hours, washed with PBS, and reacted with 3% paraformaldehyde for 10 minutes to fix the cells. Then, a block buffer (3% BSA in PBS) was treated for 1 hour to prevent the hard-to-bind antibody, and the CRT-monobody (10 μg/mL) was treated in each well and reacted for 1 hour to induce binding to calreticulin. […] In addition, Alexa 555 conjugated WGA-555 (1:2000, 3% BSA in PBS) was treated in order to distinguish cell membranes, DAPI-Glod-antifade was treated, and mounting was performed, and the prepared slides were refrigerated under dark conditions.

B1: CRT3-R (recombinant CRT-monobody-Rluc8 of CRT3) (designed binder, not shown: large carriers; small tags and cut ends)
chain: MASVSDVPRDLEVVAATPTSLLISWKLGFFKRYYRITYGETGGNSPVQEFTVPGSKSTATISGLKPGVDYTITVYAVTGQPMYGQPMYPISINYRT
notes: detected with anti-His tag antibody
For B1, the binding result in test [1] and in test [2] was “binds” in each case.

B2: CRT5 recombinant CRT-monobody (designed binder)
chain: MASVSDVPRDLEVVAATPTSLLISWGQPMYGQPMYYYRITYGETGGNSPVQEFTVPGSKSTATISGLKPGVDYTITVYAVTGRGDSPASSKPISINYRTGSHHHHHH
notes: His-tagged protein from E. coli, purified on Ni-NTA; BC loop: Hep 1; DE and FG loops marked '-'
As to B2, the binding result in test [3] is listed as “binds”.

B3: CRT2 recombinant CRT-monobody (designed binder)
chain: MASVSDVPRDLEVVAATPTSLLISWDAPAVTVRYYRITYGETGGNSPVQEFTVPGSKSTATISGLKPGVDYTITVYAVTKLGFFKRPISINYRTGSHHHHHH
notes: His-tagged protein from E. coli, purified on Ni-NTA; FG loop: Int alpha; BC and DE loops unchanged
For B3, the binding result in test [3] was “binds”.

B4: CRT3 recombinant CRT-monobody (designed binder)
chain: MASVSDVPRDLEVVAATPTSLLISWKLGFFKRYYRITYGETGGNSPVQEFTVPGSKSTATISGLKPGVDYTITVYAVTGQPMYGQPMYPISINYRTGSHHHHHH
notes: His-tagged protein from E. coli, purified on Ni-NTA
In the case of B4, the binding result in test [3] is “binds”.

B5: CRT6 recombinant CRT-monobody (designed binder)
chain: MASVSDVPRDLEVVAATPTSLLISWKLGFFKRYYRITYGETGGNSPVQEFTVPGSKSTATISGLKPGVDYTITVYAVTGRGDSPASSKPISINYRTGSHHHHHH
notes: His-tagged protein from E. coli, purified on Ni-NTA; BC loop: Int alpha; DE and FG loops marked '-'
Turning to B5, in test [3], the binding result is given as “binds”.

B6: CRT4 recombinant CRT-monobody (designed binder)
chain: MASVSDVPRDLEVVAATPTSLLISWGQPMYGQPMYYYRITYGETGGNSPVQEFTVPGSKSTATISGLKPGVDYTITVYAVTKLGFFKRPISINYRTGSHHHHHH
notes: as for B4
For the molecule B6, the binding result in test [3] is reported as “binds”.

B7: CRT1 recombinant CRT-monobody (designed binder)
chain: MASVSDVPRDLEVVAATPTSLLISWDAPAVTVRYYRITYGETGGNSPVQEFTVPGSKSTATISGLKPGVDYTITVYAVTGQPMYGQPMYPISINYRTGSHHHHHH
notes: His-tagged protein expressed in E. coli BL21(DE3) from pETh plasmid, purified on Ni-NTA; FG loop: Hep 1; BC and DE loops unchanged
In the case of B7, the binding result in test [3] was “binds”.

B8: CRT4-R (recombinant CRT-monobody-Rluc8 of CRT4) (designed binder, not shown: large carriers; small tags and cut ends)
chain: MASVSDVPRDLEVVAATPTSLLISWGQPMYGQPMYYYRITYGETGGNSPVQEFTVPGSKSTATISGLKPGVDYTITVYAVTKLGFFKRPISINYRT
notes: as for B1
Consider B8, for which the binding result in test [4] and in test [1] was “binds” each time.
